Target: myc-tagged LIMP-2
Experiment: cell-based or functional assay

post-ER form of GC (EndoH resistance) on co-expression of LIMP-2: 10 fold
Substance: wild-type β-glucocerebrosidase (GC), human, overexpressed in cells (from UniProt P04062 40-536) (enzyme)
